Test [1] concerns the target T1, in house made human PD-1-Fc protein (human, biotin-labeled (sites not given)).
T1 construct: also called biotin-labeled human PD-1-Fc
The test is described as follows: competitive ELISA: antibody pre-mixed with biotin-labeled human PD-1-Fc, added to coated human PD-L1-Fc (blocked ligand); unit from the axis 'Con of mAb, nM.'. As for the experimental part: The activities of the anti-PD1 antibodies of the disclosure to block PD-L1-PD1 binding were measured in a competitive ELISA.
Briefly, 100 μl human PD-L1-Fc protein (prepared in-house with SEQ ID NO: 28) at 2 μg/mL in carbonate/bicarbonate buffer (pH 9.6) was coated on 96-well micro plates overnight at 4° C., Plates were washed with wash buffer (PBS+0.05% w/v Tween-20, PBST), and blocked with 5% w/v non-fatty milk in PBST for 2 hours at 37° C. […] After incubation at 37° C. for 40 minutes, plates were washed using wash buffer. […] Plates were washed again using wash buffer. Finally, TMB was added and the reaction was stopped using 1M H₂SO₄. The absorbance was read on a microplate reader using dual wavelength mode with 450 nm for TMB and 630 nm as the reference wavelength, then the OD (450-630) values were plotted against antibody concentrations. Data was analyzed using Graphpad Prism software and IC₅₀ values were reported.

The target in test [2] is T2, recombinant mouse PD-1-his protein (Cat#:50124-M08H, Sino Biological Inc) (mouse, UniProt Q02242 25-167).
T2 construct: Bought protein used in Biacore and indirect ELISA; not shown: his tag
T2 sequence (looked up): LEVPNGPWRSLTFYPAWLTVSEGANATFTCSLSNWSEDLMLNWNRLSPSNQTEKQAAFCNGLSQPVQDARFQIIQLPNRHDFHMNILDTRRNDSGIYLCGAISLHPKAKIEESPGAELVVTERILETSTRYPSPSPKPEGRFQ
The test is described as follows: indirect ELISA on coated mouse PD-1-his; unit from the axis 'Con of mAb, nM.'. How it is done:
(§1) Briefly, 96-well micro plates were coated with 100 μl 2 μg/ml mouse PD-1-his (Cat#:50124-M08H, Sino Biological Inc) or 2 μg,/ml cynomolgus PD-1-his (Cat#:PD1-05223, Acro biosystems Inc.) in carbonate/bicarbonate buffer (pH 9.6) for 2 hours at 37° C. Plates were washed once with wash buffer (PBST, PBS+0.05% Tween-20) and then blocked with 200 μl blocking buffer (5% w/v non-fatty milk in PBST) for 2 hours at 37° C. […] ELISA plates were washed 4 times and incubated with Peroxidase AffiniPure goat anti-mouse IgG, Fcγ Fragment Specific (1:5000 dilution in PBST buffer, Cat#:115-035-071, Jackson ImmunoResearch Laboratories, Inc., 100 μl/well) or Peroxidase AffiniPure F(ab′)₂ Fragment Goat Anti-Human IgG, Fcγ fragment specific (Cat#:109-036-098, Jackson ImmunoResearch, for the controls) for 40 minutes at 37° C. After a final wash, plates were incubated with 100 μl/well TMB (Cat#:TMB-S-002, innoreagents) at room temperature. The reaction was stopped 3-10 minutes later with 50 μl/well 1M H₂SO₄, and the absorbance was read on a microplate reader using dual wavelength mode with 450 nm for TMB and 630 nm as the reference wavelength. Then the OD (450-630) values were plotted against antibody concentrations. Data was analyzed using GraphPad Prism software and EC₅₀ values were reported.
A general note: ELISA stands for enzyme-linked immunosorbent assay.

Test [3] deals with T3, cynomolgus PD-1-his protein (Cat#:PD1-05223, Acro biosystems Inc.) (cynomolgus, UniProt B0LAJ3 25-170).
T3 construct: Bought protein used in Biacore and indirect ELISA; also called monkey PD-1; Cyno PD-1
The test is described as follows: indirect ELISA on coated cynomolgus PD-1-his; unit from the axis 'Con of mAb, nM.'. How it is done:
as §1

The target of test [4] is T4, full length mouse PD-1 expressed on 293F-mouse PD-1 cells (mouse, UniProt Q02242 25-288).
T4 construct: also called cell surface mouse PD-1
T4 sequence: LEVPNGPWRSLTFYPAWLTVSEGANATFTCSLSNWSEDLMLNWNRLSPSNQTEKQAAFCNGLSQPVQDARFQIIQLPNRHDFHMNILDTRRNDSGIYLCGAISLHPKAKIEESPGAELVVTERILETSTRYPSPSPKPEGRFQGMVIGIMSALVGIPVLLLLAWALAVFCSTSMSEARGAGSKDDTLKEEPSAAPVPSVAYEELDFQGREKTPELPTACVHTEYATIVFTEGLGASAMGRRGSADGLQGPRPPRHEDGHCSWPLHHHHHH
The test is described as follows: cell-based binding FACS on 293F-mouse PD-1 cells (MFI); unit from the axis 'Con of mAb, nM.'. How it is done:
The binding activities of the mouse anti-PD-1 antibodies to mouse PD-1s expressed on cell surface were tested by flow cytometry (FACS), using Biosion in-house prepared 293F-mouse PD-1 cells expressing full length mouse PD-1 (SEQ ID NO.: 27) on cell membrane. The 293F-mouse PD-1 cells were prepared by transfecting 293F cells with a PCMV-T-P plasmid inserted with mouse PD-1 coding sequence between EcoR I and XbaI sites, following the instruction of lipofectamine 3000 transfection reagent (Thermo Fisher).
In specific, the 293F-mouse PD-1 cells and GS-J2/PD-1 cells were respectively harvested from cell culture flasks, washed twice and re-suspended in PBS containing 2% v/v Fetal Bovine Serum (FACS buffer). Then, 2×10⁵ cells per well were incubated in 96 well-plates with 100 μl of the anti-PD1 antibodies or controls at various concentrations for 40 minutes on ice. […] Following an incubation of 40 minutes at 4° C. in dark, cells were washed three times and re-suspended in FACS buffer. Fluorescence was measured using a Becton Dickinson FACS Canto II-HTS equipment and plotted against antibody concentrations. Data was analyzed using GraphPad Prism software and EC₅₀ values were reported.

Usually IC50 stands for the concentration that inhibits the measured activity by half. Read a low IC50 as greater potency in that assay. For orientation: EC50 means the concentration giving half of the maximal effect.

B1: mouse anti-PD-1 monoclonal antibody E1A9C8A7 (antibody, V domains shown)
VH: QVQLQQSGAEVVRPGVSVRISCKGSGYTFSDYVMHWMKQSHGESLEWIGVISTYHIPAVYNQKFKGKATMTVDKSSSTVYLELARLTSEDSAIYYCAREVYGDSYYFDVWGAGTTVTVSS
VL: DVLMTQIPLSLPVSLGDQVSISCRSSQSIVHSNGNTYLEWYLQKPGQSPKLLIYKVSNRFSGVPDRFSGSGSGTDFTLKISRVEAEDLGVYYCFQGSHVPYTFGGGTKLEIK
notes: Hybridoma-derived mouse mAb purified on Protein A; also called Mouse E1A9C8A7
In the case of B1, the IC50 in test [1] is 0.45 nM. Further, the results for the EC50 in test [2], in test [3] and in test [4] were 0.185 nM, 0.121 nM and 1.27 nM, respectively.

B2: mouse anti-PD-1 monoclonal antibody E2G4E10B7 (antibody, V domains shown)
VH: QVQLQQSGAELVRPGVSVKISCKGSGYTFTDYVMHWVRQSHAKSLEWIGVISTHFGDGVYNQKFKGKATMTVDKSSSTAYMELARLTSEDSAIYYCAREVYGDSWYFDVWGAGTTVTVSS
VL: DVLMTQTPLSLPVSLGDQASISCRSSQSLVHSDGNTYLEWYLQKPGQSPKLLIYKVSNRFSGVPDRFSGSGSGTDFTLKISRLEAEDLGVYYCFQGSHVPYTFGGGTKLEIK
notes: Hybridoma-derived mouse mAb; also called Mouse E2G4E10B7
Consider B2, for which the IC50 in test [1] came to 0.428 nM. Besides, the EC50 in test [2] is 0.34 nM; in test [3] it was 0.166 nM; in test [4] it was 0.87 nM.
